± gives the standard deviation of the averaged measurements.
System: ATP
Assay: switch fluorescence ratio, 500 uM ATP over buffer (Cy3 cluster intensity, sum of 5 cycles each) (fold (ratio)); higher = stronger signal-on switching upon ATP binding; sequences stand for … in TCGTCGGCAGCGTCAGATGTGTATAAGAGACAGTTTTTTTTTTTTTTTTTTTTTTTTT…TC
Details: aptamer strand: ATP DNA aptamer (quencher-CACCTGGGGGAGTATTGCGGAGGAAGG + anchor), 100 nM annealed; ATP concentration: 500 uM
Procedure, shortened: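 Clusters with intensities outside 100-1000 RFU were excluded. The remaining Cy3-labelled switching-strand clusters on a modified Illumina MiSeq flow-cell had been annealed to 100 nM quencher-labelled ATP aptamer and imaged in selection buffer, then after 15 min with 500 uM ATP at 22 °C, for five cycles separated by NaOH stripping and re-annealing. The fluorescence ratio, averaged per switch-domain sequence, is each cluster's summed target-cycle Cy3 intensity over its summed buffer-cycle Cy3 intensity.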
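Further: ATP exposure 15 min at 22 °C before imaging.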

Row | Sequence | switch fluorescence ratio
1 | GGATTATTTT | 1 ± 0.012
2 | GGATTCAGGG | 1.01 ± 0.018
3 | GGATTGAAGA | 0.969 ± 0.091
4 | GGATTGGAGT | 0.977 ± 0.02
5 | GGATTGGGGG | 0.995 ± 0.02
6 | GGATTGGGTG | 1.04 ± 0.09
7 | GGATTGGTGG | 1.01 ± 0.024
8 | GGATTTACGG | 1.001 ± 0.0028
9 | GGATTTAGTA | 1.01 ± 0.034
10 | GGATTTATGA | 1.002 ± 0.0092
11 | GGATTTATGT | 0.94526 ± 0.00032
12 | GGATTTGCCT | 0.997 ± 0.041
13 | GGATTTGGCG | 0.985 ± 0.029
14 | GGATTTGTGT | 1.01 ± 0.034
15 | GGATTTTATA | 1.01 ± 0.024
16 | GGATTTTTTC | 1.02 ± 0.037
17 | GGCAAAGGTA | 0.968 ± 0.014
18 | GGCAATAATA | 1.09 ± 0.035
19 | GGCACAGATT | 1.01 ± 0.019
20 | GGCACCACCT | 1.157 ± 0.0082
21 | GGCACGGGGC | 1.02 ± 0.024
22 | GGCACTAAGT | 1.04 ± 0.036
23 | GGCAGAGTTC | 0.991 ± 0.013
24 | GGCAGCCGGG | 0.97 ± 0.018
25 | GGCAGCCGGT | 1 ± 0.036

Row | Sequence | switch fluorescence ratio
26 | GGCAGCTGGG | 0.946 ± 0.023
27 | GGCAGCTGGT | 1.01 ± 0.03
28 | GGCAGTAGTG | 1.002 ± 0.0037
29 | GGCATACCGG | 0.936 ± 0.019
30 | GGCATAGAGG | 1.03 ± 0.0032
31 | GGCATATGCT | 1.02 ± 0.025
32 | GGCATCAGGG | 1.02 ± 0.013
33 | GGCATCGGAC | 1.04 ± 0.015
34 | GGCATGCCGG | 1.014 ± 0.0089
35 | GGCATGTTTG | 0.9917 ± 0.0027
36 | GGCATTATTT | 1.02 ± 0.023
37 | GGCATTCATT | 0.989 ± 0.033
38 | GGCATTGGCA | 0.995 ± 0.041
39 | GGCATTTGGT | 0.993 ± 0.025
40 | GGCATTTGTA | 1 ± 0.02
41 | GGCCAGCGGA | 1.01 ± 0.024
42 | GGCCATACGT | 1.09 ± 0.094
43 | GGCCCAGGAG | 1.01 ± 0.017
44 | GGCCCAGTAG | 1.14 ± 0.062
45 | GGCCCCGGGG | 1.11 ± 0.069
46 | GGCCGATTGT | 0.962 ± 0.024
47 | GGCCGGAGAC | 1.15 ± 0.041
48 | GGCCGGATGG | 0.991 ± 0.011
49 | GGCCGGCGTG | 0.969 ± 0.031
50 | GGCCGGTGTA | 1.03 ± 0.013

Row | Sequence | switch fluorescence ratio
51 | GGCCGTTTTC | 1.01 ± 0.00017
52 | GGCCTAAATT | 0.989 ± 0.031
53 | GGCCTAGTTT | 0.9799 ± 0.0073
54 | GGCCTATCAC | 1.016 ± 0.0078
55 | GGCCTATTCC | 1.04 ± 0.011
56 | GGCCTCATGC | 1.02 ± 0.017
57 | GGCCTCGGGG | 1.01 ± 0.05
58 | GGCCTCTTGG | 1 ± 0.011
59 | GGCGAAAGAG | 1.02 ± 0.049
60 | GGCGACGGGG | 1 ± 0.02
61 | GGCGACTAAA | 1.07 ± 0.057
62 | GGCGATCATA | 0.984 ± 0.024
63 | GGCGATTTTT | 1.013 ± 0.0022
64 | GGCGCAATTG | 2.04 ± 0.23
65 | GGCGCGAGAG | 1.032 ± 0.0092
66 | GGCGCGCATT | 1.02 ± 0.018
67 | GGCGCGGGGA | 1.02 ± 0.045
68 | GGCGCTCACA | 1.04 ± 0.028
69 | GGCGCTTTGT | 0.979 ± 0.02
70 | GGCGGCGGGA | 0.998 ± 0.027
71 | GGCGGCGTCT | 0.998 ± 0.036
72 | GGCGGCTACG | 1.003 ± 0.0035
73 | GGCGGGGACG | 0.999 ± 0.022
74 | GGCGGGGGGC | 0.986 ± 0.026
75 | GGCGGGTATG | 1.0223 ± 0.00097

Row | Sequence | switch fluorescence ratio
76 | GGCGGTACGG | 1.01 ± 0.0066
77 | GGCGGTGGCG | 0.994 ± 0.1
78 | GGCGGTGGGT | 0.999 ± 0.038
79 | GGCGGTTTGA | 0.969 ± 0.014
80 | GGCGTAATTG | 1 ± 0.032
81 | GGCGTAGGGG | 1.02 ± 0.038
82 | GGCGTCGTAT | 0.9961 ± 0.0015
83 | GGCGTGGGGG | 1.051 ± 0.01
84 | GGCGTGTCAG | 0.951 ± 0.039
85 | GGCGTTTGCT | 0.9827 ± 0.0086
86 | GGCTAAGAGT | 0.991 ± 0.02
87 | GGCTACGGAA | 2.32 ± 0.022
88 | GGCTACGGCG | 0.993 ± 0.016
89 | GGCTACTTTA | 1.07 ± 0.039
90 | GGCTAGAGCT | 0.982 ± 0.032
91 | GGCTATCAAA | 1.01 ± 0.018
92 | GGCTCATTGG | 0.969 ± 0.025
93 | GGCTCGGGAC | 1.01 ± 0.039
94 | GGCTCGTAGG | 1 ± 0.024
95 | GGCTGCACGG | 1.013 ± 0.01
96 | GGCTGCAGCT | 0.992 ± 0.016
97 | GGCTGCCAGT | 0.9909 ± 0.0016
98 | GGCTGGATCT | 0.975 ± 0.027
99 | GGCTGGCACA | 1.002 ± 0.0085
100 | GGCTGGCAGC | 1 ± 0.016
